{
  "source": "the Human Domainome abundance scans (Beltran et al. 2025)",
  "parents": {"B1": {"name": "3'-5' exoribonuclease 1, residues 65 to 114; numbered along this chain, Q8IV48 (parent)", "chain": "VYKEIAITNGCINRMSKEELRAKLSEFKLETRGVKDVLKKRLKNYYKKQK"}},
  "note": "± gives the uncertainty stated by the source.",
  "data": [
    {"variants_of": "B1", "experiment": "abundance fitness (aPCA) (normalised: wild type 0, dead -1); higher = more abundant; growth selection in yeast, the domain comes from the species named", "details": "Homo sapiens", "values": [
      {"variant": "VYKEIAITNGCINRMSKEELRAKDSEFKLETRGVKDVLKKRLKNYYKKQK", "note": "[L24D]", "abundance fitness": "-1.05 ± 0.13"},
      {"variant": "VYKEIAITNGCINRMSKEELRAKGSEFKLETRGVKDVLKKRLKNYYKKQK", "note": "[L24G]", "abundance fitness": "-0.97 ± 0.048"},
      {"variant": "VYKEIAITNGCINRMSKEELRAKESEFKLETRGVKDVLKKRLKNYYKKQK", "note": "[L24E]", "abundance fitness": "-0.986 ± 0.081"},
      {"variant": "VYKEIAITNGCINRMSKEELRAKTSEFKLETRGVKDVLKKRLKNYYKKQK", "note": "[L24T]", "abundance fitness": "-0.832 ± 0.084"},
      {"variant": "VYKEIAITNGCINRMSKEELRAKPSEFKLETRGVKDVLKKRLKNYYKKQK", "note": "[L24P]", "abundance fitness": "-0.984 ± 0.072"},
      {"variant": "VYKEIAITNGCINRMSKEELRAKVSEFKLETRGVKDVLKKRLKNYYKKQK", "note": "[L24V]", "abundance fitness": "-0.813 ± 0.046"},
      {"variant": "VYKEIAITNGCINRMSKEELRAKWSEFKLETRGVKDVLKKRLKNYYKKQK", "note": "[L24W]", "abundance fitness": "-0.902 ± 0.043"},
      {"variant": "VYKEIAITNGCINRMSKEELRAKYSEFKLETRGVKDVLKKRLKNYYKKQK", "note": "[L24Y]", "abundance fitness": "-0.896 ± 0.085"},
      {"variant": "VYKEIAITNGCINRMSKEELRAKQSEFKLETRGVKDVLKKRLKNYYKKQK", "note": "[L24Q]", "abundance fitness": "-0.927 ± 0.069"},
      {"variant": "VYKEIAITNGCINRMSKEELRAKSSEFKLETRGVKDVLKKRLKNYYKKQK", "note": "[L24S]", "abundance fitness": "-0.488 ± 0.044"},
      {"variant": "VYKEIAITNGCINRMSKEELRAKMSEFKLETRGVKDVLKKRLKNYYKKQK", "note": "[L24M]", "abundance fitness": "-0.507 ± 0.052"},
      {"variant": "VYKEIAITNGCINRMSKEELRAKCSEFKLETRGVKDVLKKRLKNYYKKQK", "note": "[L24C]", "abundance fitness": "-0.052 ± 0.049"},
      {"variant": "VYKEIAITNGCINRMSKEELRAKHSEFKLETRGVKDVLKKRLKNYYKKQK", "note": "[L24H]", "abundance fitness": "-0.772 ± 0.083"},
      {"variant": "VYKEIAITNGCINRMSKEELRAKASEFKLETRGVKDVLKKRLKNYYKKQK", "note": "[L24A]", "abundance fitness": "-0.704 ± 0.06"},
      {"variant": "VYKEIAITNGCINRMSKEELRVKLSEFKLETRGVKDVLKKRLKNYYKKQK", "note": "[A22V]", "abundance fitness": "-0.048 ± 0.038"},
      {"variant": "VYKEIAITNGCINRMSKEELRTKLSEFKLETRGVKDVLKKRLKNYYKKQK", "note": "[A22T]", "abundance fitness": "-0.055 ± 0.052"},
      {"variant": "VYKEIAITNGCINRMSKEELRSKLSEFKLETRGVKDVLKKRLKNYYKKQK", "note": "[A22S]", "abundance fitness": "-0.04 ± 0.039"},
      {"variant": "VYKEIAITNGCINRMSKEELRWKLSEFKLETRGVKDVLKKRLKNYYKKQK", "note": "[A22W]", "abundance fitness": "-0.209 ± 0.046"},
      {"variant": "VYKEIAITNGCINRMSKEELRAKLWEFKLETRGVKDVLKKRLKNYYKKQK", "note": "[S25W]", "abundance fitness": "-0.188 ± 0.05"},
      {"variant": "VYKEIAITNGCINRMSKEELRAKLNEFKLETRGVKDVLKKRLKNYYKKQK", "note": "[S25N]", "abundance fitness": "-0.038 ± 0.063"},
      {"variant": "VYKEIAITNGCINRMSKEELRAKLHEFKLETRGVKDVLKKRLKNYYKKQK", "note": "[S25H]", "abundance fitness": "-0.099 ± 0.059"},
      {"variant": "VYKEIAITNGCINRMSKEELRAKLFEFKLETRGVKDVLKKRLKNYYKKQK", "note": "[S25F]", "abundance fitness": "-0.104 ± 0.044"},
      {"variant": "VYKEIAITNGCINRMSKEELRAKLVEFKLETRGVKDVLKKRLKNYYKKQK", "note": "[S25V]", "abundance fitness": "-0.205 ± 0.04"},
      {"variant": "VYKEIAITNGCINRMSKEELRAKLGEFKLETRGVKDVLKKRLKNYYKKQK", "note": "[S25G]", "abundance fitness": "-0.039 ± 0.037"},
      {"variant": "VYKEIAITNGCINRMSKEELRAKLAEFKLETRGVKDVLKKRLKNYYKKQK", "note": "[S25A]", "abundance fitness": "0.032 ± 0.039"},
      {"variant": "VYKEIAITNGCINRMSKEELRAKLEEFKLETRGVKDVLKKRLKNYYKKQK", "note": "[S25E]", "abundance fitness": "-0.106 ± 0.053"},
      {"variant": "VYKEIAITNGCINRMSKEELRAKLIEFKLETRGVKDVLKKRLKNYYKKQK", "note": "[S25I]", "abundance fitness": "-0.315 ± 0.055"},
      {"variant": "VYKEIAITNGCINRMSKEELRAKLMEFKLETRGVKDVLKKRLKNYYKKQK", "note": "[S25M]", "abundance fitness": "-0.1 ± 0.049"},
      {"variant": "VYKEIAITNGCINRMSKEELRAKLREFKLETRGVKDVLKKRLKNYYKKQK", "note": "[S25R]", "abundance fitness": "0.022 ± 0.038"},
      {"variant": "VYKEIAITNGCINRMSKEELRAKLTEFKLETRGVKDVLKKRLKNYYKKQK", "note": "[S25T]", "abundance fitness": "-0.126 ± 0.048"},
      {"variant": "VYKEIAITNGCINRMSKEELRAKLYEFKLETRGVKDVLKKRLKNYYKKQK", "note": "[S25Y]", "abundance fitness": "-0.105 ± 0.05"},
      {"variant": "VYKEIAITNGCINRMSKEELRAKLKEFKLETRGVKDVLKKRLKNYYKKQK", "note": "[S25K]", "abundance fitness": "0.004 ± 0.047"},
      {"variant": "VYKEIAITNGCINRMSKEELRAKLDEFKLETRGVKDVLKKRLKNYYKKQK", "note": "[S25D]", "abundance fitness": "-0.096 ± 0.056"},
      {"variant": "VYKEIAITNGCINRMSKEELRAKLQEFKLETRGVKDVLKKRLKNYYKKQK", "note": "[S25Q]", "abundance fitness": "-0.034 ± 0.053"},
      {"variant": "VYKEIAITNGCINRMSKEELRAKLLEFKLETRGVKDVLKKRLKNYYKKQK", "note": "[S25L]", "abundance fitness": "-0.083 ± 0.04"},
      {"variant": "VYKEIAITNGCINRMSKEELRAKLCEFKLETRGVKDVLKKRLKNYYKKQK", "note": "[S25C]", "abundance fitness": "-0.121 ± 0.052"},
      {"variant": "VYKEIAITNGCINRMSKEELRAKLPEFKLETRGVKDVLKKRLKNYYKKQK", "note": "[S25P]", "abundance fitness": "-0.323 ± 0.059"},
      {"variant": "VYKEIAITNGCINRMSKEELRAKLSEFFLETRGVKDVLKKRLKNYYKKQK", "note": "[K28F]", "abundance fitness": "-0.407 ± 0.083"},
      {"variant": "VYKEIAITNGCINRMSKEELRAKLSEFELETRGVKDVLKKRLKNYYKKQK", "note": "[K28E]", "abundance fitness": "-0.178 ± 0.057"},
      {"variant": "VYKEIAITNGCINRMSKEELRAKLSEFGLETRGVKDVLKKRLKNYYKKQK", "note": "[K28G]", "abundance fitness": "0.038 ± 0.043"},
      {"variant": "VYKEIAITNGCINRMSKEELRAKLSEFMLETRGVKDVLKKRLKNYYKKQK", "note": "[K28M]", "abundance fitness": "-0.194 ± 0.055"},
      {"variant": "VYKEIAITNGCINRMSKEELRAKLSEFSLETRGVKDVLKKRLKNYYKKQK", "note": "[K28S]", "abundance fitness": "-0.06 ± 0.042"},
      {"variant": "VYKEIAITNGCINRMSKEELRAKLSEFALETRGVKDVLKKRLKNYYKKQK", "note": "[K28A]", "abundance fitness": "-0.141 ± 0.054"},
      {"variant": "VYKEIAITNGCINRMSKEELRAKLSEFDLETRGVKDVLKKRLKNYYKKQK", "note": "[K28D]", "abundance fitness": "-0.156 ± 0.07"},
      {"variant": "VYKEIAITNGCINRMSKEELRAKLSEFTLETRGVKDVLKKRLKNYYKKQK", "note": "[K28T]", "abundance fitness": "-0.338 ± 0.06"},
      {"variant": "VYKEIAITNGCINRMSKEELRAKLSEFVLETRGVKDVLKKRLKNYYKKQK", "note": "[K28V]", "abundance fitness": "-0.817 ± 0.058"},
      {"variant": "VYKEIAITNGCINRMSKEELRAKLSEFPLETRGVKDVLKKRLKNYYKKQK", "note": "[K28P]", "abundance fitness": "-0.963 ± 0.083"},
      {"variant": "VYKEIAITNGCINRMSKEELRAKLSEFCLETRGVKDVLKKRLKNYYKKQK", "note": "[K28C]", "abundance fitness": "-0.127 ± 0.053"},
      {"variant": "VYKEIAITNGCINRMSKEELRAKLSEFQLETRGVKDVLKKRLKNYYKKQK", "note": "[K28Q]", "abundance fitness": "-0.124 ± 0.068"},
      {"variant": "VYKEIAITNGCINRMSKEELRAKLSEFRLETRGVKDVLKKRLKNYYKKQK", "note": "[K28R]", "abundance fitness": "-0.061 ± 0.036"},
      {"variant": "VYKEIAITNGCINRMSKEELRAKLSEFLLETRGVKDVLKKRLKNYYKKQK", "note": "[K28L]", "abundance fitness": "-0.732 ± 0.053"},
      {"variant": "VYKEIAITNGCINRMSKEELRAKLSEFHLETRGVKDVLKKRLKNYYKKQK", "note": "[K28H]", "abundance fitness": "-0.057 ± 0.06"}
    ]}
  ]
}
